B1: Pistol ribozyme (parent)
chain: GGGUCGUUGUUCCAUAAUCGCGUGGAUAUGGCACGCAAGUUUCUACCGGGCACCGUAAAUGUCCGACUGGAGCCGUUCGGGCGGCUAUAAACAGACCUCAGGCCCGAAGCGUGGCGGCACCUGCCGCCGGUGGUAAAAAAGAUCGGAAGAGCACACGUCU

Variants of: B1
Test: aptazyme ON/OFF ratio, guanine; higher = stronger switching; co-transcriptional cleavage with and without guanine
For GGGUCGUUUCUCCAUAAUCGCGUGGAUAUGGCACGCAAGUUUCUACCGGGCACCGUAAAUGUCCGACUGGAGCCGUUCGGGCGGCUAUAAACAGACCUCAGGCCCGAAGCGUGGCGGCACCUGCCGCCGGUGGUAAAAAAGAUCGGAAGAGCACACGUCU, the “aptazyme ON/OFF ratio” value was 4.48. In the case of GGGUCGGUUAGAUAUAAUCGCGUGGAUAUGGCACGCAAGUUUCUACCGGGCACCGUAAAUGUCCGACUGGAGCCGUUCGGGCGGCUAUAAACAGACCUCAGGCCCGAAGCGUGGCGGCACCUGCCGCCGGUGGUAAAAAAGAUCGGAAGAGCACACGUCU, the “aptazyme ON/OFF ratio” value is reported as 1.12. With GGGUCGACGAAAAAUAAUCGCGUGGAUAUGGCACGCAAGUUUCUACCGGGCACCGUAAAUGUCCGACUGGAGCCGUUCGGGCGGCUAUAAACAGACCUCAGGCCCGAAGCGUGGCGGCACCUGCCGCCGGUGGUAAAAAAGAUCGGAAGAGCACACGUCU the “aptazyme ON/OFF ratio” value was 1.07. In the case of GGGUCGCGAGGCCAUAAUCGCGUGGAUAUGGCACGCAAGUUUCUACCGGGCACCGUAAAUGUCCGACUGGAGCCGUUCGGGCGGCUAUAAACAGACCUCAGGCCCGAAGCGUGGCGGCACCUGCCGCCGGUGGUAAAAAAGAUCGGAAGAGCACACGUCU, the “aptazyme ON/OFF ratio” value is reported as 1.42. With GGGUCGAGGAGAAAUAAUCGCGUGGAUAUGGCACGCAAGUUUCUACCGGGCACCGUAAAUGUCCGACUGGAGCCGUUCGGGCGGCUAUAAACAGACCUCAGGCCCGAAGCGUGGCGGCACCUGCCGCCGGUGGUAAAAAAGAUCGGAAGAGCACACGUCU the “aptazyme ON/OFF ratio” value was 1.28. For GGGUCGGGAGAACAUAAUCGCGUGGAUAUGGCACGCAAGUUUCUACCGGGCACCGUAAAUGUCCGACUGGAGCCGUUCGGGCGGCUAUAAACAGACCUCAGGCCCGAAGCGUGGCGGCACCUGCCGCCGGUGGUAAAAAAGAUCGGAAGAGCACACGUCU, the “aptazyme ON/OFF ratio” value was 1.07. In the case of GGGUCGGUGUGAUAUAAUCGCGUGGAUAUGGCACGCAAGUUUCUACCGGGCACCGUAAAUGUCCGACUGGAGCCGUUCGGGCGGCUAUAAACAGACCUCAGGCCCGAAGCGUGGCGGCACCUGCCGCCGGUGGUAAAAAAGAUCGGAAGAGCACACGUCU, the “aptazyme ON/OFF ratio” value is reported as 1.14. For GGGUCGCCAAGCUAUAAUCGCGUGGAUAUGGCACGCAAGUUUCUACCGGGCACCGUAAAUGUCCGACUGGAGCCGUUCGGGCGGCUAUAAACAGACCUCAGGCCCGAAGCGUGGCGGCACCUGCCGCCGGUGGUAAAAAAGAUCGGAAGAGCACACGUCU, the “aptazyme ON/OFF ratio” value was 1.21. In the case of GGGUCGUUAUUUUAUAAUCGCGUGGAUAUGGCACGCAAGUUUCUACCGGGCACCGUAAAUGUCCGACUGGAGCCGUUCGGGCGGCUAUAAACAGACCUCAGGCCCGAAGCGUGGCGGCACCUGCCGCCGGUGGUAAAAAAGAUCGGAAGAGCACACGUCU, the “aptazyme ON/OFF ratio” value is reported as 1.32. In the case of GGGUCGUGCGAAGAUAAUCGCGUGGAUAUGGCACGCAAGUUUCUACCGGGCACCGUAAAUGUCCGACUGGAGCCGUUCGGGCGGCUAUAAACAGACCUCAGGCCCGAAGCGUGGCGGCACCUGCCGCCGGUGGUAAAAAAGAUCGGAAGAGCACACGUCU, the “aptazyme ON/OFF ratio” value is reported as 1.11. For GGGUCGAACAUGGAUAAUCGCGUGGAUAUGGCACGCAAGUUUCUACCGGGCACCGUAAAUGUCCGACUGGAGCCGUUCGGGCGGCUAUAAACAGACCUCAGGCCCGAAGCGUGGCGGCACCUGCCGCCGGUGGUAAAAAAGAUCGGAAGAGCACACGUCU, the “aptazyme ON/OFF ratio” value was 1.13. For GGGUCGUCGCAUGAUAAUCGCGUGGAUAUGGCACGCAAGUUUCUACCGGGCACCGUAAAUGUCCGACUGGAGCCGUUCGGGCGGCUAUAAACAGACCUCAGGCCCGAAGCGUGGCGGCACCUGCCGCCGGUGGUAAAAAAGAUCGGAAGAGCACACGUCU, the “aptazyme ON/OFF ratio” value was 1.23. With GGGUCGUCGAAUUAUAAUCGCGUGGAUAUGGCACGCAAGUUUCUACCGGGCACCGUAAAUGUCCGACUGGAGCCGUUCGGGCGGCUAUAAACAGACCUCAGGCCCGAAGCGUGGCGGCACCUGCCGCCGGUGGUAAAAAAGAUCGGAAGAGCACACGUCU the “aptazyme ON/OFF ratio” value was 1.26. For GGGUCGUGACCUGAUAAUCGCGUGGAUAUGGCACGCAAGUUUCUACCGGGCACCGUAAAUGUCCGACUGGAGCCGUUCGGGCGGCUAUAAACAGACCUCAGGCCCGAAGCGUGGCGGCACCUGCCGCCGGUGGUAAAAAAGAUCGGAAGAGCACACGUCU, the “aptazyme ON/OFF ratio” value was 1.04. With GGGUCGGCCUCGCAUAAUCGCGUGGAUAUGGCACGCAAGUUUCUACCGGGCACCGUAAAUGUCCGACUGGAGCCGUUCGGGCGGCUAUAAACAGACCUCAGGCCCGAAGCGUGGCGGCACCUGCCGCCGGUGGUAAAAAAGAUCGGAAGAGCACACGUCU the “aptazyme ON/OFF ratio” value was 1.34. For GGGUCGAGUGAUGAUAAUCGCGUGGAUAUGGCACGCAAGUUUCUACCGGGCACCGUAAAUGUCCGACUGGAGCCGUUCGGGCGGCUAUAAACAGACCUCAGGCCCGAAGCGUGGCGGCACCUGCCGCCGGUGGUAAAAAAGAUCGGAAGAGCACACGUCU, the “aptazyme ON/OFF ratio” value was 1.18. In the case of GGGUCGCCGCUCAAUAAUCGCGUGGAUAUGGCACGCAAGUUUCUACCGGGCACCGUAAAUGUCCGACUGGAGCCGUUCGGGCGGCUAUAAACAGACCUCAGGCCCGAAGCGUGGCGGCACCUGCCGCCGGUGGUAAAAAAGAUCGGAAGAGCACACGUCU, the “aptazyme ON/OFF ratio” value is reported as 1.24. With GGGUCGGCCGACAAUAAUCGCGUGGAUAUGGCACGCAAGUUUCUACCGGGCACCGUAAAUGUCCGACUGGAGCCGUUCGGGCGGCUAUAAACAGACCUCAGGCCCGAAGCGUGGCGGCACCUGCCGCCGGUGGUAAAAAAGAUCGGAAGAGCACACGUCU the “aptazyme ON/OFF ratio” value was 1.05.

— the RNAGym collection of RNA variant scans (doi:10.1021/acssynbio.7b00057)
